Experimental data taken from patent US9150884B2, “Microbial conversion of glucose to styrene and its derivatives” (Arizona Board of Regents, a Body Corporate of the State of …, priority 2011, dated 2015).

Key:
[1] = Whole cell CADC assay in recombinant E. coli BL21(DE3); assay type: cell-based; conditions: whole cells in pH7 PBS, 1 g/L trans-cinnamic acid, 12 h
Experimental: (§1) Seed cultures consisting of 5 ml of LB broth containing 100 mg/L ampicillin were prepared of E. coli BL21(DE3) strains that were individually transformed with each of pTpad1-fdc1, pTpad1Sc, pTfdc1Sc, pTpdcLp, and pTpadCBs. These cultures were grown for 12 hours at 30° C. while agitating at 250 rpm. 1 mL of each culture was then used to inoculate 3×250 mL cultures flasks containing 50 mL of LB supplemented with 100 mg/L ampicillin. The culture was then grown at 30° C. while agitating at 250 rpm until it reached an OD600 of 0.6, at which point the cultures were induced by the addition of IPTG to a final concentration of 0.2 mM. Cultures were then grown for an additional 6 h. Cells were then collected by centrifuging in 50 ml Falcon tubes for 5 min at 1400×g and washed once with pH7 PBS (phosphate buffered saline) buffer. The entire cell pellet was resuspended in 10 ml pH7 PBS buffer and the appropriate substrate (trans-cinnamic acid or p-coumaric acid) added at a final concentration of 1 g/L. Enzyme activity was monitored by taking 1 mL samples from the culture at both the time of initiation as well as after 12 h of culture. All samples were then analyzed by HPLC using the methods described herein.

[2] = Whole cell PADC assay in recombinant E. coli BL21(DE3); assay type: cell-based; conditions: whole cells in pH7 PBS, 1 g/L p-coumaric acid, 12 h
Experimental: as §1

B1: FDC1: ferulic acid decarboxylase encoded by FDC1 of S. cerevisiae, expressed in recombinant E. coli from pTfdc1Sc (protein, listed as Saccharomyces cerevisiae)
chain: MRKLNPALEFRDFIQVLKDEDDLIEITEEIDPNLEVGAIMRKAYESHLPAPLFKNLKGASKDLFSILGCPAGLRSKEKGDHGRIAHHLGLDPKTTIKEIIDYLLECKEKEPLPPITVPVSSAPCKTHILSEEKIHLQSLPTPYLHVSDGGKYLQTYGMWILQTPDKKWTNWSIARGMVVDDKHITGLVIKPQHIRQIADSWAAIGKANEIPFALCFGVPPAAILVSSMPIPEGVSESDYVGAILGESVPVVKCETNDLMVPATSEMVFEGTLSLTDTHLEGPFGEMHGYVFKSQGHPCPLYTVKAMSYRDNAILPVSNPGLCTDETHTLIGSLVATEAKELAIESGLPILDAFMPYEAQALWLILKVDLKGLQALKTTPEEFCKKVGDIYFRTKVGFIVHEIILVADDIDIFNFKEVIWAYVTRHTPVADQMAFDDVTSFPLAPFVSQSSRSKTMKGGKCVTNCIFRQQYERSFDYITCNFEKGYPKGLVDKVNENWKRYGYK
CADC activity (trans-cinnamic acid to styrene) [1]: activities on both p-coumaric and trans-cinnamic acid | activity on p-coumaric acid (to p-hydroxystyrene) [2]: activities on both p-coumaric and trans-cinnamic acid
